According to article PMC5120205 (Nature Communications, 2016):

Experiments:
Conditions in all cases: both partners purified
[1] = molecular target: T1, recombinant IsdB NEAT2 domain (Staphylococcus aureus USA300, UniProt Q2FHV2); assay: ELISA
T1 construct: not shown: FLAG, C-terminal, kept

[2] = molecular target: IsdB NEAT2 domain (Staphylococcus aureus USA300, UniProt Q2FHV2); assay: SPR
[3] = molecular target: T2, recombinant full-length IsdB (Staphylococcus aureus USA300, UniProt Q2FHV2); assay: ELISA
T2 construct: not shown: FLAG, C-terminal, kept

[4] = molecular target: T3, recombinant full-length IsdB (Staphylococcus aureus USA300, UniProt Q2FHV2); assay: ELISA; remark: listed apart in the source
T3 construct: not shown: FLAG, C-terminal, kept

[5] = molecular target: T4, recombinant full-length IsdB (Staphylococcus aureus USA300, UniProt Q2FHV2); assay: SPR
T4 construct: not shown: FLAG, C-terminal, kept

[6] = molecular target: T5, recombinant IsdB NEAT1 domain (Staphylococcus aureus USA300, UniProt Q2FHV2); assay: ELISA
T5 construct: not shown: FLAG, C-terminal, kept

[7] = molecular target: T2, recombinant full-length IsdB; assay: SPR; remark: listed apart in the source
[8] = molecular target: T4, recombinant full-length IsdB; assay: BLI; Octet; antibody captured on anti-species sensors (15 ug/ml), 32 nM rIsdB bound, then 1 uM Hb or buffer

B1: D4-30-N2 (antibody, V domains shown)
VH: QVQLVQSGSEVKKPGSSVTLSCKASGDTFNTHTYSWVRQAPGQRLEWIGGIMPIFAASKSAPHLQDRLTITANKATRTAYMELTSLTSDDSGVYYCARDGRGALQYWGQGTLVTVSS
VL: DIVMTQSPLSLPVTLGQPASISCSSAQSLVHSDGDSYLTWFHQRPGQSPRRLIYKVSIRDAGVPDRFSGSGSGTDFTLKISRVEAEDVGVYYCMQATHWPYTFGQGTKLEIK
B1: binds [1].

B2: D4-30-N2 antibody (human IgG) (antibody, V domains shown)
VH: QVQLVQSGSEVKKPGSSVTLSCKASGDTFNTHTYSWVRQAPGQRLEWIGGIMPIFAASKSAPHLQDRLTITANKATRTAYMELTSLTSDDSGVYYCARDGRGALQYWGQGTLVTVSS
VL: DIVMTQSPLSLPVTLGQPASISCSSAQSLVHSDGDSYLTWFHQRPGQSPRRLIYKVSIRDAGVPDRFSGSGSGTDFTLKISRVEAEDVGVYYCMQATHWPYTFGQGTKLEIK
B2: binds [2]; binds [3].

B3: D2-06-N2 (IGHV1-69*01 germline-reverted) (antibody, V domains shown)
VH: QVQLVQSGAEVKKPGSSVKVSCKASGGTFSSYAISWVRQAPGQGLEWMGGIIPIFGTANYAQKFQGRVTITADESTSTAYMELSSLRSEDTAVYYCARDRPPGAQFDTWGQGTLVTVSS
VL: not shown
With B3 the other [2] was > 600 fold.

B4: D2-06-N2 (IGHV1-69*01 germline-reverted) variant F54L (antibody, V domains shown)
VH: QVQLVQSGAEVKKPGSSVKVSCKASGGTFSSYAISWVRQAPGQGLEWMGGIIPILGTANYAQKFQGRVTITADESTSTAYMELSSLRSEDTAVYYCARDRPPGAQFDTWGQGTLVTVSS
VL: not shown
B4: binds [3].

B5: D2-06-N2 (IGHV1-69*01 germline-reverted) variant G50R (antibody, V domains shown)
VH: QVQLVQSGAEVKKPGSSVKVSCKASGGTFSSYAISWVRQAPGQGLEWMGRIIPIFGTANYAQKFQGRVTITADESTSTAYMELSSLRSEDTAVYYCARDRPPGAQFDTWGQGTLVTVSS
VL: not shown
B5: no binding [4].

B6: D2-06-N2 (IGHV1-69*01 germline-reverted) variant T56I (antibody, V domains shown)
VH: QVQLVQSGAEVKKPGSSVKVSCKASGGTFSSYAISWVRQAPGQGLEWMGGIIPIFGIANYAQKFQGRVTITADESTSTAYMELSSLRSEDTAVYYCARDRPPGAQFDTWGQGTLVTVSS
VL: not shown
B6: binds [3].

B7: D4-10-N1 (antibody, V domains shown)
VH: QVQLQESGPGLVKPSETLSLICTVSGGSISSSSYYWGWIRQTPERNLEWIGIIYFSGTTYYNPSLQSRVSMSLDRSTNRFSLRLSSVTAADTAIYYCAKPKSRDRGGPGDDYFGMDVWGQGIMVTVSS
VL: DIQLTQSPSFLSASVADRVTITCRASQAVRSSLAWYQQKPGKAPQLLIYSASTLENGVSSRFSGSGPGTEFTLTISSLQPEDVGTYYCQQLNTYPFTFGPGTKVEIK
In the case of B7, the Kd [5] is reported as < 1 pM and the binding result [6] is reported as “binds”.

B8: D4-10-N1 antibody (human IgG) (antibody, V domains shown)
VH: QVQLQESGPGLVKPSETLSLICTVSGGSISSSSYYWGWIRQTPERNLEWIGIIYFSGTTYYNPSLQSRVSMSLDRSTNRFSLRLSSVTAADTAIYYCAKPKSRDRGGPGDDYFGMDVWGQGIMVTVSS
VL: DIQLTQSPSFLSASVADRVTITCRASQAVRSSLAWYQQKPGKAPQLLIYSASTLENGVSSRFSGSGPGTEFTLTISSLQPEDVGTYYCQQLNTYPFTFGPGTKVEIK
B8: binds [7].

B9: D4-10-N1 germline-reverted (IGHV4-39) (antibody, V domains shown)
VH: QLQLQESGPGLVKPSETLSLTCTVSGGSISSSSYYWGWIRQPPGKGLEWIGSIYYSGSTYYNPSLKSRVTISVDTSKNQFSLKLSSVTAADTAVYYCAKPKSRDRGGPGDDYFGMDVWGQGIMVTVSS
VL: DIQLTQSPSFLSASVADRVTITCRASQAVRSSLAWYQQKPGKAPQLLIYSASTLENGVSSRFSGSGPGTEFTLTISSLQPEDVGTYYCQQLNTYPFTFGPGTKVEIK
B9: binds [7].

B10: germlined D4-10 (NEAT1) (antibody, V domains shown)
VH: QLQLQESGPGLVKPSETLSLTCTVSGGSISSSSYYWGWIRQPPGKGLEWIGSIYYSGSTYYNPSLKSRVTISVDTSKNQFSLKLSSVTAADTAVYYCAKPKSRDRGGPGDDYFGMDVWGQGIMVTVSS
VL: DIQLTQSPSFLSASVADRVTITCRASQAVRSSLAWYQQKPGKAPQLLIYSASTLENGVSSRFSGSGPGTEFTLTISSLQPEDVGTYYCQQLNTYPFTFGPGTKVEIK
B10: binds [8].
